Laboratory results as given in US12440573B2, “Antibody-conjugates for targeting of tumours expressing PTK7” (Synaffix B.V., priority 2022, dated 2025).
Marks after values point to notes of the source that are not given here.

Tests used:
[1] = system: A431 (PTK7+, ATCC CRL-1555) cells; assay: In vitro cytotoxicity, resazurin viability; type: cell-based; settings: 5 days incubation
Protocol: A431 (PTK7+, ATCC CRL-1555) cells were plated in 96-well plates (10000 cells in 150 μL/well) in DMEM (ATCC) supplemented with 10% fetal bovine serum (FBS) (Invitrogen) and incubated overnight in a humidified atmosphere at 37° C. and 5% CO2. ADCs were added in triplo in a square root of 10 dilution series to obtain a final concentration ranging from 100 nM-0.01 nM. The cells were incubated for 5 days in a humidified atmosphere at 37° C. and 5% CO2. The culture medium was replaced by 0.01 mg/mL resazurin (Sigma Aldrich) in DMEM supplemented with 10% FBS (200 μL/well). After approximately 4 hours in a humidified atmosphere at 37° C. and 5% CO2 the fluorescence was detected with a fluorescence plate reader (Infinite® M1000 Tecan) at 560 nm excitation and 590 nm emission. The relative fluorescent units (RFU) were normalized to cell viability percentage by setting wells without cells at 0% viability and wells with untreated cells at 100% viability (see FIG. 9). IC50 values for ADCs on A431 cells were calculated by non-linear regression using Graphpad prism software and are shown in the table below: […]

[2] = Stability of ADCs in human plasma (DAR by RP-UPLC); type: in vitro ADME
Protocol: (§1) General procedure for analytical RP-UPLC (DTT treated samples): Prior to RP-UPLC analysis, IgG (10 μL, 1 mg/mL in PBS pH 7.4) was added to 12.5 mM DTT, 100 mM TrisHCl pH 8.0 (40 μL) and incubated for 15 minutes at 37° C. The reaction was quenched by adding 49% acetonitrile, 49% water, 2% formic acid (50 μL). RP-UPLC analysis was performed on a Waters Acquity UPLC-SQD. The sample (5 μL) was injected with 0.4 mL/min onto Bioresolve RP mAb 2.1*150 mm 2.7 μm (Waters) with a column temperature of 70° C. A linear gradient was applied in 9 minutes from 30 to 54% acetonitrile in 0.1% TFA and water. Absorbance of eluted peaks was measured at 215 nm followed by automated integration (MassLynx, Waters) to determine reaction conversion.
(§2) Stability of ADCs in mice and human plasma was tested. Prior to the assay, the plasma was depleted from all IgG using CaptivA® Protein A agarose (1 mL agarose/mL serum). ADCs were added to the depleted human/mouse serum to a final concentration of 0.1 mg/mL followed by incubation at 37° C. At each time point, 0.5 mL was snap frozen and stored at −80° C. until further analysis. To isolate the ADCs after incubation, 20 μl CaptivA® Protein A agarose resin was added to the samples and incubated for 1 hour at room temperature. The resin was washed three times with PBS and subsequently 0.1 M Glycine-HCl pH 2.7 (0.4 mL) was added to elute the ADCs. After elution, the samples were immediately neutralized with 1.0 M Tris pH 8.0 (0.1 mL). The samples were spin-filtered against PBS for three times using Amicon Ultra spin-filter 0.5 mL MWCO 10 kDa (Merck Millipore) and the volume was reduced to 40 μL, yielding a final ADC concentration of approximately 1 mg/mL. Samples were analyzed on RP-UPLC (DTT reduced) to determine the DAR, tables below.

[3] = Stability of ADCs in mice plasma (DAR by RP-UPLC); type: in vitro ADME
Protocol: as §1, §2

[4] = system: PTK7 expressing NCl—H446 tumor model; assay: In vivo efficacy study, NCl—H446 xenograft (Example 30); set-up: species or system BALB/c nude mice; settings: single IV dose; cofetuzumab-3 2.59, 5.18, 10.36 mg/kg; cofetuzumab-5b 2.59, 5.18 mg/kg; cofetuzumab-Aur0101 2.33 mg/kg; up to t=44 days
Protocol: (§3) NCl—H446, lung cancer xenograft model cell line was maintained in vitro using RPMI-1640 medium supplemented with 10% FBS in humidified cell culture incubator at 37° C. with standard 5% CO2 specs. The cells in an exponential growth phase were harvested and counted for tumor inoculation.
BALB/c nude mice (female) of 7-9 weeks old received a subcutaneous injection in the right front flank region with 5×10^6 tumor cells in 0.1 ml of PBS mixed with Matrigel (1:1) for tumor development. When tumors reached an average size of 100-200 mm^3, randomization was performed into 10 groups of 8 mice and treatment began. Randomization will be performed based on “Matched distribution” method (Study Director™ Software, version 3.1.399.19). The date of randomization will be denoted as day 0.
(§4) Electronic caliper measurement were performed 2 times a week. Daily observations for clinical signs, food and water consumption, behavioral changes, animals were weighed 2 times per week. […]
(§5) Observation and data collection. […] Tumor volumes are measured every 3-4 days in two dimensions using an caliper, and the volume data are expressed in mm3 using the formula: V=(L×W×W)/2, where V is tumor volume, L is tumor length (the longest tumor dimension) and W is tumor width (the longest tumor dimension perpendicular to L). […]

[5] = system: PTK7 expressing NCl—H446 tumor model; assay: In vivo efficacy study, NCl—H446 xenograft, with Olaparib (Example 33); set-up: species or system BALB/c nude mice; settings: ADC 2.5 mg/kg single IV dose; Olaparib 50 mg/kg orally QD×21 days
Protocol: as §3
BALB/c nude mice (female) of 7-9 weeks old received a subcutaneous injection in the right front flank region with 5×10^6 tumor cells in 0.1 ml of PBS mixed with Matrigel (1:1) for tumor development. When tumors reached an average size of 100-200 mm^3, randomization was performed into 5 groups of 8 mice and treatment began. Randomization will be performed based on “Matched distribution” method (Study Director™ Software, version 3.1.399.19). The date of randomization will be denoted as day 0.
as §4
as §5, with “collection: After tumor cells inoculation, the animals are checked daily for morbidity and mortality.” for “collection.”

[6] = human plasma, 0.1 mg/mL, 37° C.

B12-3: B12(6-N3-GalNAc)2 conjugated with BCN—HS-PEG2-HS-(va-PAB-Ex)2 3; negative / isotype control ADC [reference compound]
IC50 [1]: > 100 nM

cofetuzumab-Aur0101: TCEP-reduced cofetuzumab conjugated with Auristatin0101; average DAR 4.3; conventional comparator ADC [reference compound]
DAR t = 0 ([2]; human plasma table, direct measurement (not through isolation from plasma with protA agarose resin)): 4.21*
DAR t = 3 [2, 6]: 3.61
DAR t = 14 [2, 6]: 2.67
DAR t = 14, % of t = 0 [2, 6]: 63%
DAR t = 0 ([3]; mice plasma table, direct measurement (not through isolation from plasma with protA agarose resin)): 4.21*
DAR t = 1 ([3]; mice plasma, 0.1 mg/mL, 37° C.): 3.64
DAR t = 3 ([3]; mice plasma, 0.1 mg/mL, 37° C.): 3.26
DAR t = 7 ([3]; mice plasma, 0.1 mg/mL, 37° C.): 2.46
DAR t = 7, % of t = 0 ([3]; mice plasma, 0.1 mg/mL, 37° C.): 58%
in vivo efficacy (tumor volume over time) [4]: only marginal tumor growth delay

O=C(c1cc(Cc2n[nH]c(=O)c3ccccc23)ccc1F)N1CCN(C(=O)C2CC2)CC1 [Olaparib]
in vivo efficacy (tumor volume over time), single treatment [5]: no significant effect

cofetuzumab-5b: cofetuzumab(6-N3-GalNAc)2 conjugated with BCN—HS-vc-PABC-calicheamicin 5b; average DAR 1.93
IC50 [1]: 0.1 nM
in vivo efficacy (tumor volume over time) [4]: tumor growth delay
